Source: US20030186322A1 (Scripps Research, published 2003)

B1: 92H2 phage Fv (VH-(Gly4Ser)-pVII / VL-(Gly4Ser)-pIX heterodimer displayed on phage) (other)
VH: MAEVQLQQSGPELKKPGETVKISCKTSGYSFTNYGMNWVKQAPGKGLKWMGWINTYTGEPTYADDFRGRFAFSLATSASTAYLQIINLKNEDTATYFCETYDSPLGDYWGQGTTVTVSSSSGGGGSGMEQVADFDTIYQAMIQISVVLCFALGIIAGGQR
VL: DIGLTQSPASLAVSLGQRATISCRASKSVSTSGYNYMHWYQQKPGQPPKLLIYLASNLASGVPARFSGSGSGTDFTLNIHPVEEEDAATYYCLYSREFPPWTFGGGTKLEIKRSGGGGSMSVLVYSFASFVLGWCLRSGITYFTRLMETSS
notes: also called 92H2 phage antibody; 92H2-VHVL
B2: 21H3 phage Fv (VH-(Gly4Ser)-pVII / VL-(Gly4Ser)-pIX heterodimer displayed on phage) (other)
VH: MAEVQLLEVQLQQSGPVLVKPGGSVKMSCKASEYTLTSYLFQWVKQKSGQGLEWIGYIYPYNGGTRYNEKFRGKATLTSDKSSNTAYLELSSLTSEDSAVYYCARSSMSDPGANWGPGTLVTVSGGGGSGMEQVADFDTIYQAMIQISVVLCFALGIIAGGQR
VL: DIQMTQSPSSLSASLGERVSLTCRASQEISGYLYWLQQKPDGTIKRLIYAASTLDSGVPKRFSGSRSGSDYSLTISSLESEDFADYYCLQYASYPRTFGGGTKVEIKRADSGGGGSMSVLVYSFASFVLGWCLRSGITYFTRLMETSS
notes: also called 21H3 phage antibody; 21H3-VHVL
B3: 2H6 phage Fv (VH-(Gly4Ser)-pVII / VL-(Gly4Ser)-pIX heterodimer displayed on phage) (other)
VH: MAEVQLLEEVNLVESGGGLVKPGGSLKLSCAASGFTFSSYAMSWVRQTPEKRLEWVASINNGGKIYYPDSVKGRFTISRDNARNILYLQMSSLRSEDTAMYYCVKRDSSVYDYAMDNWGQGTSVTVSSGGGGSGMEQVADFDTIYQAMIQISVVLCFALGIIAGGQR
VL: VLTQSPAIMYASPGEKVTITCSASSSVSYMHWFQQKPGTSPKLWIYSTSKLASGVPARFSGSGSGTSYSLTISRMEAEDVATYYCQQRSSYTVTFGAGTKLELKRTSGGGGSMSVLVYSFASFVLGWCLRSGITYFTRLMETSS
notes: also called 2H6 phage antibody; 2H6-VHVL

Target: T1, BSA (bovine serum albumin) (bovine, UniProt P02769 25-607)
T1 construct: Carrier protein without hapten; also called BSA-gold complex
T1 sequence (P02769 25-607 limits assumed): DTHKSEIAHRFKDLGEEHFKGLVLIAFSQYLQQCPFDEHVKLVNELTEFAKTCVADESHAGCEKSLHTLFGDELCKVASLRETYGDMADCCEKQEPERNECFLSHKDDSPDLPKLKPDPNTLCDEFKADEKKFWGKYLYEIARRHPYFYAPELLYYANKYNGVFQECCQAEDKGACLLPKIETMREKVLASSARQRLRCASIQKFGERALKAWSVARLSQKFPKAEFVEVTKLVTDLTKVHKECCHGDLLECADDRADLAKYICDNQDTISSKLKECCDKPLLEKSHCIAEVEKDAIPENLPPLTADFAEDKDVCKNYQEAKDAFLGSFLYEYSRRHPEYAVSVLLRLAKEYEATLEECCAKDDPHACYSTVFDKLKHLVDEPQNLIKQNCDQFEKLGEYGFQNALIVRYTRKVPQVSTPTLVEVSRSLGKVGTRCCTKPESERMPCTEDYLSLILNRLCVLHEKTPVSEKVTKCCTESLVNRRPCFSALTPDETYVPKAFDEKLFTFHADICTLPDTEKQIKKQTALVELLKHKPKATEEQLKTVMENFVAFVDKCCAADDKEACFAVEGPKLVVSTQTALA
Assay: phage ELISA
Procedure: The supernatant of the phage culture described above was directly used for ELISA. Microtiter wells (Corning) were coated with 25 μl of 10 μg/ml mouse anti-Flag antibody to assay Flag constructs with pVII/pIX, with PCP-BSA for 21H3 and 2H6 constructs, and with the cocaine conjugate GNC—BSA to assay the 92H2 construct. The coated plates were then incubated at room temperature overnight and blocked with 50 μl of Blotto (4% skim milk powder in PBS). Typically, 25 μl of phage supernatant was added and the plate was incubated at 37 C. for 1 hr. After washing, 25 μl of 1/1000 dilution of horseradish peroxidase/anti-M13 conjugate (Pharmacia) in Blotto was added and incubated at 37 C. for 30 minutes. The plate was extensively washed three times with PBS/0.1% tween-20 and pipetted vigorously up and down to remove nonspecific binding phage. The plate was then developed with TMB (3,3′,5,5′-tetramethylbenzidine) substrate (Pierce) and quenched with an equal volume of 2 M H₂SO₄. The absorbance of each reaction was then read on an ELISA Plate reader at 450 nM.

| Binder | binding result |
| --- | --- |
| B1 | no binding |
| B2 | no binding |
| B3 | no binding |
